The values below come from patent publication US20260234246A1 (CAEDO ONCOLOGY, published 2026).

For test [1], the target named is T1, human CD47 on the surface of cells (human cancer cell lines and human red blood cells) (human, UniProt Q08722 19-323).
T1 construct: Native CD47 of human cell lines (Jurkat, Reh, CCRF-CEM and others) and of RBCs from healthy donors; also called cell-surface CD47
Briefly: flow cytometry, FITC-mCO-1 on HT-1197 cells.
Procedure: (§1) PBS-washed cancer cell lines or RBCs were pelleted and washed with washing buffer (3% (w/v) BSA, 1% (w/v) sodium azide in PBS) and incubated with Human BD Fc Block for 10 minutes before being plated into a round-bottom 96 well plate (2.5×10⁵ cells per well). Antibodies were conjugated with FITC using the FITC conjugation kit from Abcam. […] All samples were prepared in duplicates. Cells were washed three times and resuspended in cold washing buffer. Cells were kept on ice until analyses by flow cytometry. Excitation wavelength FITC: 488 nm, detection: 530/30 nm.

For test [2], the target named is T1, human CD47 on the surface of cells …. Briefly: flow cytometry, FITC-mCO-1 on Raji cells. On the technique in general: Flow cytometry measures light scatter and fluorescence of single cells or particles in a stream.
For test [3] the target is unchanged. Briefly: flow cytometry, FITC-mCO-1 on HT-1376 cells.
For test [4] the target is unchanged. The test is described as follows: flow cytometry, FITC-mCO-1 on SUP-T1 cells.
Procedure: as §1
Test [5] shares this target. The test is described as follows: flow cytometry, FITC-mCO-1 on SW1088 cells.
Procedure: as §1
The target is the same in test [6]. Briefly: flow cytometry, FITC-mCO-1 on K-562 cells.
Procedure: as §1
For test [7] the target is unchanged. Briefly: flow cytometry, FITC-mCO-1 on H4 cells.
Procedure: as §1
The target is the same in test [8]. Briefly: flow cytometry on human RBCs (same experiment as paragraph 345, printed more exactly).
Test [9] shares this target. The test is described as follows: flow cytometry, FITC-mCO-1 on SW780 cells.
Test [10] shares this target. The test is described as follows: flow cytometry, FITC-mCO-1 on A-172 cells.
Test [11] shares this target. Briefly: flow cytometry, FITC-mCO-1 on MOLT-4 cells.
Test [12] has the same target. Briefly: flow cytometry, FITC-mCO-1 on Reh cells.
The target is the same in test [13]. The test is described as follows: flow cytometry, FITC-mCO-1 on T24 cells.
Procedure: as §1
Test [14] has the same target. Briefly: flow cytometry, FITC-mCO-1 on UM-UC-3 cells.
Test [15] shares this target. Briefly: flow cytometry, FITC-mCO-1 on CCRF-CEM cells.
Test [16] has the same target. Briefly: flow cytometry, FITC-mCO-1 on U-118-MG cells.
Procedure: as §1
For test [17] the target is unchanged. The test is described as follows: flow cytometry, FITC-mCO-1 on U-87-MG cells.
Test [18] shares this target. The test is described as follows: flow cytometry, FITC-mCO-1 on HL-60 cells.
Test [19] shares this target. Briefly: flow cytometry, FITC-mCO-1 on human RBCs (FIG. 1E).
Procedure: as §1
The target is the same in test [20]. Briefly: flow cytometry, FITC-mCO-1 on TCCSUP cells.
Procedure: as §1
Test [21] deals with T2, recombinant CD47 (recCD47), SinoBiological 12283-H27H-B, biotinylated (human, UniProt Q08722 19-139, biotinylated (AVI-tag)).
T2 construct: Bought protein, 17 kDa; At 17 kDa it can only be a part of it; also called recombinant biotinylated CD47; not shown: C-terminal His- and AVI-tag
T2 sequence (Q08722 19-139 limits assumed): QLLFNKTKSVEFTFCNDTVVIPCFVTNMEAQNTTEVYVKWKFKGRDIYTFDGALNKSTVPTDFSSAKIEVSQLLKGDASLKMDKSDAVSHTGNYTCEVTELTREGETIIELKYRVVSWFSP
The test is described as follows: SPR Biacore S200, single-cycle, recCD47 on SA chip 700 RU, antibody as analyte, 25 C, 1:1 model. In general terms: SPR reads the build-up and loss of mass on a sensor chip optically.

For test [22], the target named is T1, human CD47 on the surface of cells …. Briefly: flow cytometry, FITC-conjugated antibody on CCRF-CEM cells.
Procedure: as §1
4-parameter curve fitting was performed using GraphPad Prism
The target of test [23] is T2, recombinant CD47 (recCD47), …. Briefly: SPR Biacore S200, multi-cycle (top 50 nM), recCD47 on SA chip 1330 RU, 1:1 model.
Test [24] has the same target. The test is described as follows: SPR Biacore S200, multi-cycle (top 50 nM), recCD47 on SA chip 1330 RU, antibody as analyte, 1:1 model.
Test [25] has the same target. Briefly: SPR Biacore S200, single-cycle (top 80 nM), recCD47 on SA chip 1330 RU, antibody as analyte, 1:1 model.
Test [26] shares this target. Briefly: SPR Biacore S200, multi-cycle (top 50 nM), recCD47 on SA chip 1330 RU, 1:1 model; * off-rate difficult to determine.
For test [27] the target is unchanged. The test is described as follows: SPR Biacore S200, single-cycle (top 80 nM), recCD47 on SA chip 1330 RU, 1:1 model; * off-rate difficult to determine.
Test [28] shares this target. Briefly: SPR Biacore S200, single-cycle (top 80 nM), recCD47 on SA chip 1330 RU, 1:1 model.
Test [29] shares this target. The test is described as follows: SPR Biacore S200, single-cycle, recCD47 on SA chip 100 RU, fragment as analyte, 25 C, 1:1 model.

T1 sequence (Q08722 19-323 limits assumed): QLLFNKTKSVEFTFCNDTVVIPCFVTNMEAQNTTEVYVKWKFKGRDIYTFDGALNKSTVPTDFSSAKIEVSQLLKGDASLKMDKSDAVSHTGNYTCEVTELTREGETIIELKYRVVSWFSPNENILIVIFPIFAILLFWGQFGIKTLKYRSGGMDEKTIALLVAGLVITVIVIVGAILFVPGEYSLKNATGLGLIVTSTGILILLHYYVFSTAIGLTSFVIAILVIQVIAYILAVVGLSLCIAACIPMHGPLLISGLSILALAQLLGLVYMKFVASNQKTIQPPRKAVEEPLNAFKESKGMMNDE

B1: murine CO-1 (mCO-1) antibody (antibody, V domains shown)
VH: QIQLVQSGPELKKPGETVKISCKASGYTFTNFGMHWVKQAPGKGLKWMGWINTYTGEPTYTDDFKGRFAFSLETSASTAYLQINSLKNEDTATFFCTRGDYRYGDSWGQGTTLTVSS
VL: DVVMTQTPLSLPVSLGDQASISCRSSQSLVHSNGKTYLHWYLQKPGQSPKLLIYRVSNRFSGVPDRFSGSGSGTDFTLKISRIEAEDLGVYFCSQSTHVPFTFGSGTKLEIK
notes: Full length mouse IgG1 kappa antibody from a hybridoma
As a reminder, the EC50 is the midpoint of the concentration-response curve. Lower therefore signals greater potency. For B1, the EC50 in test [1] came to 786 ng/mL; in test [2] it was 26.7 ng/mL; in [3], 286 ng/mL; in [4], 4.25 ng/mL; in test [5] it was 1170 ng/mL; in [6], 354 ng/mL. Moreover, the EC50 in test [7] came to 2460 ng/mL; in test [8], 44 ng/mL; in test [9], 334 ng/mL; in test [10], 3500 ng/mL; in [11], 10.6 ng/mL; in [12] it was 2800 ng/mL. Also, the EC50 was 900 ng/mL in test [13]; 55.3 ng/mL in test [14]; 1.08 ng/mL in test [15]; 404 ng/mL in test [16]; 2990 ng/mL in [17]; 592 ng/mL in test [18]. In addition, the figures for the EC50 in [19] and in [20] were 40 ng/mL and 2400 ng/mL, respectively.

B2: CO-1.1 antibody (chimeric CO-1 IgG1) (antibody)
heavy: not shown
light: DVVMTQTPLSLPVSLGDQASISCRSSQSLVHSNGKTYLHWYLQKPGQSPKLLIYRVSNRFSGVPDRFSGSGSGTDFTLKISRIEAEDLGVYFCSQSTHVPFTFGSGTKLEIKRTVAAPSVFIFPPSDEQLKSGTASVVCLLNNFYPREAKVQWKVDNALQSGNSQESVTEQDSKDSTYSLSSTLTLSKADYEKHKVYACEVTHQGLSSPVTKSFNRGEC
notes: Chimeric: mouse variable domains of mCO-1 with human IgG1 constant regions; also called SC-CO-1; MC-CO-1
Broadly, the koff is the rate constant with which the complex falls apart. As a reminder, the kon is a measure of how fast the partners come together. Usually Kd stands for the concentration at which binding is half-saturated. Regarding B2, in [21], the koff is 4.7e-06 s⁻¹. In addition, the kon in test [21] is 1.4e+06 M⁻¹ s⁻¹; in test [24], 900000 M⁻¹ s⁻¹; in test [25], 500000 M⁻¹ s⁻¹. The molecule also registered an EC50 in test [22] of 0.0283 ng/mL. Moreover, the Kd in test [23] was less than 1 pM; in [26], 0.04 pM; in [27], less than 1 pM; in test [28] it was less than 1 pM.

B3: CO-1 F(ab')2 antibody (other)
heavy: QIQLVQSGPELKKPGETVKISCKASGYTFTNFGMHWVKQAPGKGLKWMGWINTYTGEPTYTDDFKGRFAFSLETSASTAYLQINSLKNEDTATFFCTRGDYRYGDSWGQGTTLTVSSASTKGPSVFPLAPSSKSTSGGTAALGCLVKDYFPEPVTVSWNSGALTSGVHTFPAVLQSSGLYSLSSVVTVPSSSLGTQTYICNVNHKPSNTKVDKKVEPKSCDKTHTCPPCPAPELLG
light: B2 light
notes: F(ab')2 fragment, divalent for CD47, based on mCO-1; also called CO F(ab')2; CO-F(ab')2
As for B3, in [29], the koff is 4.5e-05 s⁻¹ and the kon amounted to 6.9e+06 M⁻¹ s⁻¹.
